Publication PMC10120002 (Proceedings of the National Academy of Sciences of the …, 2023)

What was measured:
[1] = target: T1, recombinant Cdk5/p25 complex (UniProt Q00535 1-292; Q15078 99-307); test: BLI
[2] = target: T1, recombinant Cdk5/p25 complex; test: MST
[3] = target: Cdk5 protein alone (recombinant) (UniProt Q00535 1-292); test: MST

Question: With ARAFGIPVRCYS [Cdk5i peptide] as the binder, how does the Kd [1] read?
Answer: 220 nM

Question: What about the Kd [2] of the same binder?
Answer: 170 nM

Question: What about the Kd [3] of the same binder?
Answer: 15700 nM
